Assay [1] concerns dark-grown Arabidopsis seedlings. The experiment in a line: Silver sensitivity assay: effect of silver on ethylene response of dark-grown seedlings. Type of assay: in vivo. An excerpt:
As an initial test for the feasibility of the first hypothesis, Applicant asked if ETR1^D25N could still bind a metal cofactor, and therefore potentially ethylene, in planta. For this purpose, Applicant examined the effects of silver (Ag) on ethylene sensitivity. Silver is thought to substitute for the copper cofactor and, although receptors containing silver can still bind ethylene, they no longer transmit the signal, resulting in ethylene insensitivity.

Assay [2] in a line: Copper binding assay: purified ETR1 transmembrane domain titrated to BCA2-Cu(I) complex, absorbance at 562 nm. Conditions: ETR1-TMD expressed and purified from E. coli; Cu(I) stabilized by BCA. An excerpt: Cu(I) was stabilized by the copper chelator BCA, and then titrated with increasing ETR1 protein concentration.
Titration curves were corrected for nonspecific binding observed with chemically and thermally denatured receptor to maximize signal to background levels.

Assay [3] can be described thus: Saturable [14C]ethylene binding to yeast transgenically expressing ETR1. Conditions: 0.21 μL L^−1 [14C]ethylene; for saturable [14C]ethylene binding: with or without excess [12C]ethylene; for ethylene binding relative to ETR1^wt: % of wild-type binding. More on the design: species or system Saccharomyces cerevisiae. From the text:
Saturable ethylene binding of the ETR1 Asp25 mutants was examined by heterologous expression in yeast, with binding to [^14C]ethylene determined in the presence or absence of excess [^12C]ethylene (FIG. 2C). […] This included the ETR1^D25A mutant, consistent with previous observations, as well as for the ETR1^D25N and ETR1^D25Q mutants (FIG. 2C). Results from the ethylene binding assay are therefore consistent with the negative charge at D25 playing a significant role in mediating high-affinity ethylene binding.
[^14C]ethylene (specific activity=116 mCi/mmol) was obtained from ViTrax Radiochemicals (Placentia, CA) and trapped as the mercuric perchlorate complex as described. For ethylene binding assays in yeast, ETR1 was expressed in the yeast Saccharomyces cerevisiae (strain FY834) using the vector pYcDE-2 and a constitutive ADC1 promoter. The yeast growth media was supplemented with 40 μg L^−1 copper sulfate. Saturable ethylene binding to yeast was determined by analyzing binding of 0.3 g yeast per sample to 0.21 μL L^−1 [^14C]ethylene, in the presence or absence of excess [^12C]ethylene.

Assay [4] concerns OSR1, ERF1, EXP5 and EXPb1 expression. The experiment in a line: Ethylene-dependent gene expression by RT-qPCR. The assay is classed as in vivo, Arabidopsis. Conditions: 0 or 1 μL L^−1 ethylene for 2 hr. How it is done:
To examine the short-term molecular response, Applicant characterized ethylene-dependent gene expression for the ETR1 Asp25 mutants (FIG. 6B). Expression of OSR1 and ERF1 is induced, whereas the expression of EXP5 and EXPb1 is repressed, in response to ethylene.
RNA isolation and RT-qPCR was performed with three biological replicates and two technical replicates of each.
In general terms: Real-time PCR tracks product formation cycle by cycle.

For assay [5], the system named is Arabidopsis seedlings, etr1 etr2 ein4 background. The experiment in a line: Short-term kinetic analysis of hypocotyl growth response to ethylene. Conditions: 10 μL/L ethylene for 2 hr. Type of assay: in vivo. Here is the method:
Based on the differences Applicant uncovered for the long-term ethylene growth responses for the Asp25 mutants, Applicant also analyzed their short-term hypocotyl growth and molecular responses to ethylene. To this end, Applicant performed a short-term kinetic analysis, analyzing the initial hypocotyl growth inhibition in response to 10 μL/L ethylene and the growth recovery following the removal of ethylene after two hours of treatment (FIG. 6A).
(§1) All Arabidopsis lines were of the Columbia (Col-0) accession. The etr1-1 and etr1-6 etr2-3 ein4-4 mutant lines have been described. Analysis of the triple response of dark-grown Arabidopsis seedlings to ethylene was performed as described previously. Briefly, seedlings were grown at 22° C. on vertically oriented plates on half-strength Murashige and Skoog basal medium with Gamborg's vitamins (pH 5.75; Sigma), 0.8% (w/v) agar, and 5 μM aminoethoxyvinylglycine (AVG) to inhibit ethylene biosynthesis. The stratified seed was exposed to light for 8 hr and then moved to the dark in the presence or absence of ethylene, with analysis of the seedling growth being performed following 4 days total growth. For short-term kinetic analysis of dark-grown seedlings, time-lapse imaging and growth rate analysis of hypocotyls were carried out as described previously.

Assay [6] shares this test system. Kind of assay: Triple-response hypocotyl growth assay of dark-grown seedlings expressing ETR1 transgenes. Conditions: for rescue of growth of etr1 etr2 ein4 triple mutant in air: absence of ethylene, hypocotyl and adult shoot growth; for hypocotyl growth response to ethylene: dark-grown seedlings, 0 or 1 μL L^−1 ethylene. Type of assay: in vivo. How it is done:
Functionality of the ETR1 Asp25 mutants was tested by transgenic expression in the etr1 etr2 ein4 Arabidopsis background.
Applicant can thus exploit the triple mutant to assess the ability of the ETR1 transgenes to rescue growth in the absence of ethylene as well as their ability to mediate a response to ethylene. Such an analysis indicates whether the encoded receptors are able to assume the ‘on’ conformation that represses the ethylene response in air, as well as the ‘off’ conformation that occurs in response to ethylene binding.
as §1

The conditions of assay [7]: previously reported, cited from earlier work.
Assay [8] deals with Arabidopsis seedlings, etr1 etr2 ein4 background. Conditions: previously reported; cited from earlier work.

Changes are numbered by the printed parent chain. Numbers in names are those of the source. Where two headings read alike, the source gives them in different places.

Consider `[Ag]` [silver, reference compound], for which the “effect of silver on ethylene response of etr1 etr2 ein4 triple mutant” value in assay [1] (etr1 etr2 ein4, 10 μL/L ethylene) is “still responsive to ethylene”. The “effect of silver on ethylene response of wild-type seedlings” value in assay [1] (wild-type, 10 μL/L ethylene) is “blocked”.

B1: ETR1^D25A: ETR1 with site-directed mutation of Asp25 to Ala (protein, UniProt P49333 1-738, looked up, variant D25A)
Ethylene receptor 1: MEVCNCIEPQWPADELLMKYQYISAFFIAIAYFSIPLELIYFVKKSAVFPYRWVLVQFGAFIVLCGATHLINLWTFTTHSRTVALVMTTAKVLTAVVSCATALMLVHIIPDLLSVKTRELFLKNKAAELDREMGLIRTQEETGRHVRMLTHEIRSTLDRHTILKTTLVELGRTLALEECALWMPTRTGLELQLSYTLRHQHPVEYTVPIQLPVINQVFGTSRAVKISPNSPVARLRPVSGKYMLGEVVAVRVPLLHLSNFQINDWPELSTKRYALMVLMLPSDSARQWHVHELELVEVVADQVAVALSHAAILEESMRARDLLMEQNVALDLARREAETAIRARNDFLAVMNHEMRTPMHAIIALSSLLQETELTPEQRLMVETILKSSNLLATLMNDVLDLSRLEDGSLQLELGTFNLHTLFREVLNLIKPIAVVKKLPITLNLAPDLPEFVVGDEKRLMQIILNIVGNAVKFSKQGSISVTALVTKSDTRAADFFVVPTGSHFYLRVKVKDSGAGINPQDIPKIFTKFAQTQSLATRSSGGSGLGLAISKRFVNLMEGNIWIESDGLGKGCTAIFDVKLGISERSNESKQSGIPKVPAIPRHSNFTGLKVLVMDENGVSRMVTKGLLVHLGCEVTTVSSNEECLRVVSHEHKVVFMDVCMPGVENYQIALRIHEKFTKQRHQRPLLVALSGNTDKSTKEKCMSFGLDGVLLKPVSLDNIRDVLSDLLEPRVLYEGM
Turning to B1, in assay [2], the copper binding entry is listed as “no copper binding”. In addition, the “saturable [14C]ethylene binding” value in assay [3] was “No saturable [^14C]ethylene binding was detected”. For the same molecule, in assay [4], the “molecular response to ethylene (ethylene-dependent gene expression)” value (from here on “molecular response to ethylene”) is reported as “various levels of hyposensitivity”. The “short-term hypocotyl growth response to ethylene” value in assay [5] is listed as “exhibit ethylene insensitivity”. Further, in assay [6], the “rescue of growth of etr1 etr2 ein4 triple mutant in air” value (“rescue” for short) is reported as “rescued growth” and the “hypocotyl growth response to ethylene” value is given as “conferred ethylene insensitivity”. The “ethylene binding (previous studies)” value in assay [7] is on record as “eliminate ethylene binding”. The “ethylene binding (previous studies)” value in assay [7] (listed as D25A) is listed as “abolishes ethylene binding”. Further, the “ethylene sensitivity of plants (previous studies)” value in assay [8] is on record as “confers dominant ethylene-insensitivity”.

B2: ETR1^K91R: ETR1 with basic Lys91 replaced by Arg (protein, UniProt P49333 1-738, looked up, variant K91R)
Ethylene receptor 1: B1 Ethylene receptor 1 with A25D, K91R
As to B2, the “ethylene binding relative to ETR1^wt” value in assay [3] was found to be 63%. Moreover, in assay [6], the “hypocotyl growth response to ethylene” value was “conferred ethylene hyposensitivity”.

B3: ETR1^K91M: ETR1 with Lys91 replaced by a nonpolar sidechain of similar size (Met) (protein, UniProt P49333 1-738, looked up, variant K91M)
Ethylene receptor 1: B1 Ethylene receptor 1 with A25D, K91M
Regarding B3, the “ethylene binding relative to ETR1^wt” value in assay [3] is given as “approximately 6%”. For the same molecule, in assay [6], the “rescue” value was “failed to rescue seedling growth efficiently” and the “hypocotyl growth response to ethylene” value is recorded as “partial ethylene hyposensitivity”.

B4: ETR1^D25E: ETR1 with Asp25 replaced by Glu (protein, UniProt P49333 1-738, looked up, variant D25E)
Ethylene receptor 1: B1 Ethylene receptor 1 with A25E
Turning to B4, in assay [2], the copper binding result is listed as “minimal residual binding”. The “saturable [14C]ethylene binding” value in assay [3] is on record as “substantially reduced”. Also, the “molecular response to ethylene” value in assay [4] is listed as “various levels of hyposensitivity”. Moreover, in assay [5], the “short-term hypocotyl growth response to ethylene” value is listed as “exhibit ethylene insensitivity”. In assay [6], the “rescue” value was “rescued growth” and the “hypocotyl growth response to ethylene” value is “conferred ethylene insensitivity”.

B5: ETR1^D25N,K91M: ETR1 combining Asp25Asn with K91M (protein, UniProt P49333 1-738, looked up, variant D25N K91M)
Ethylene receptor 1: B1 Ethylene receptor 1 with A25N, K91M
Turning to B5, in assay [6], the “hypocotyl growth response to ethylene” value was “further reduction in the ability to rescue seedling growth and respond to ethylene”.

B6: ETR1^D25N,K91A: ETR1 combining Asp25Asn with K91A (protein, UniProt P49333 1-738, looked up, variant D25N K91A)
Ethylene receptor 1: B1 Ethylene receptor 1 with A25N, K91A
In the case of B6, the “hypocotyl growth response to ethylene” value in assay [6] is “all ethylene insensitive”.

B7: ETR1^D25Q: ETR1 with Asp25 replaced by Gln (protein, UniProt P49333 1-738, looked up, variant D25Q)
Ethylene receptor 1: B1 Ethylene receptor 1 with A25Q
In the case of B7, the copper binding result in assay [2] is “minimal residual binding”. In addition, the “saturable [14C]ethylene binding” value in assay [3] was “No saturable [^14C]ethylene binding was detected”. The “molecular response to ethylene” value in assay [4] is reported as “various levels of hyposensitivity”. For the same molecule, in assay [5], the “short-term hypocotyl growth response to ethylene” value is on record as “exhibit ethylene insensitivity”. In addition, in assay [6], the “rescue” value is on record as “rescued growth” and the “hypocotyl growth response to ethylene” value is recorded as “conferred ethylene insensitivity”.

B8: ETR1^K91A: ETR1 with Lys91 replaced by smaller nonpolar sidechain (Ala) (protein, UniProt P49333 1-738, looked up, variant K91A)
Ethylene receptor 1: B1 Ethylene receptor 1 with A25D, K91A
B8: in assay [3], the “ethylene binding relative to ETR1^wt” value is 1%. The “hypocotyl growth response to ethylene” value in assay [6] is given as “a phenotype similar to that of the ETR1^K91M mutant or complete ethylene insensitivity”. Besides, the “ethylene binding (previous studies)” value in assay [7] is on record as “low level of ethylene binding ability”. Moreover, in assay [8], the “ethylene sensitivity of plants (previous studies)” value is listed as “confer ethylene insensitivity”.

B9: ETR1^D25N,K91R: ETR1 combining Asp25Asn with K91R (protein, UniProt P49333 1-738, looked up, variant D25N K91R)
Ethylene receptor 1: B1 Ethylene receptor 1 with A25N, K91R
For the molecule B9, the “hypocotyl growth response to ethylene” value in assay [6] is on record as “more insensitive to ethylene than the ETR1^K91R mutant”.
